B1: PP6226 (antibody, V domains shown)
VH: EVKFEESGGGLVQPGGSIKLSCAASGVTFSEAWMDWVRQSPEKGLEWVAEIRDKTKNYVTYYAESVKGRFTISRDDSKSRVYLQMNNLRTEDTGIYYCTGAMDYWGQGTSVTVSS
VL: DIVMTQTPLSLSVTIGQPASISCKSSQSLLYSNGKTYLNWLQQRPGQSPKRLIYQVSKLDPGIPDRFSGSGSETDFTLKISRVEAEDLGIYYCLQGTSYPWTFGGGTKLEIKR
B2: PP6232 (antibody, V domains shown)
VH: B1 VH
VL: B1 VL with I63T, L94M, Y99T
B3: PP6228 (antibody, V domains shown)
VH: B1 VH with T28A, E31G, I95V
VL: B1 VL
B4: PP6234 (antibody, V domains shown)
VH: B1 VH
VL: B1 VL with I63T, L94M, T97A, Y99V
B5: PP6235 (antibody, V domains shown)
VH: B1 VH with T28A, E31G, I95V
VL: B1 VL with L94M, T97A, Y99L
B6: PP6231 (antibody, V domains shown)
VH: B1 VH with K54N, K56T
VL: B1 VL
B7: PP6233 (antibody, V domains shown)
VH: B1 VH
VL: B1 VL with L94M, T97A, Y99L
B8: PP6230 (antibody, V domains shown)
VH: B1 VH with T55S, K56T
VL: B1 VL
B9: PP6368 (antibody, V domains shown)
VH: B1 VH with T55P, K56N, N57S
VL: B1 VL with L94M, S98Y, Y99L
B10: PP6372 (antibody, V domains shown)
VH: B1 VH with T55Q, K56N, N57E
VL: B1 VL with L94M, T97S, Y99L
B11: PP6369 (antibody, V domains shown)
VH: B1 VH with T28P, E31G
VL: B1 VL with L94M, S98Y, Y99L
B12: PP6236 (antibody, V domains shown)
VH: B1 VH with K54N, K56T
VL: B1 VL with L94M, T97A, Y99L
B13: PP6371 (antibody, V domains shown)
VH: B1 VH with S40T, K54R, T55E, K56T, N57K
VL: B1 VL with L94M, Y99L
B14: PP6370 (antibody, V domains shown)
VH: B1 VH with S79G
VL: B1 VL with L94M, S98Y, Y99L
B15: PP6388 (antibody, V domains shown)
VH: B1 VH with S40T, K54R, T55E, K56T, N57K
VL: B1 VL with L94M, S98Y, Y99L
B16: PP6387 (antibody, V domains shown)
VH: B1 VH with S79G
VL: B1 VL with L94M, T97S, Y99L
B17: PP6373 (antibody, V domains shown)
VH: B1 VH with T55P, K56N, N57S
VL: B1 VL with L94M, T97S, Y99L

Substitutions are numbered along the chain they refer to.

The first assay addresses T1, CD24-GST fusion protein.
T1 chain: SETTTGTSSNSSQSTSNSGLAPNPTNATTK
The assay can be described thus: competitive ELISA. A general note: An ELISA detects its analyte on a solid surface through an enzyme-linked reagent.
Regarding B1, the IC50 (usually the concentration needed to halve the response being measured) was determined as 0.0814 µg/mL.

Molecule B2 registered an IC50 of 0.0713 µg/mL.

B3 yielded a 50% inhibitory concentration (IC50) of 0.0888 µg/mL.

In turn, B4 came in with a half-maximal inhibitory concentration (IC50) of 0.0426 µg/mL.

B5 showed a half-inhibitory concentration (IC50) of 0.0411 µg/mL.

In turn, B6 displayed an IC50 of 0.0768 µg/mL.

B7: the IC50 is 0.0372 µg/mL.

The molecule B8 yielded an IC50 of 0.0589 µg/mL.

In a further assay the target is T1, CD24-GST fusion protein. Description: competitive ELISA. This is another data set of the same source.
As for B9, the 50% inhibitory concentration (IC50) was found to be 0.0299 µg/mL.

In turn, B10 registered an IC50 of 0.0269 µg/mL.

B1 came in with a half-maximal inhibitory concentration (IC50) of 0.0856 µg/mL.

Consider B11, for which the IC50 is 0.0611 µg/mL.

B12 showed an IC50 of 0.0336 µg/mL.

Turning to B5, the IC50 turned out to be 0.0419 µg/mL.

As to B13, the IC50 is 0.0345 µg/mL.

For the molecule B14, the IC50 worked out at 0.0642 µg/mL.

In a further assay the target is T1, CD24-GST fusion protein. Description: competitive ELISA. This is another data set of the same source.
The molecule B10 showed a concentration for half-maximal inhibition (IC50) of 0.0268 µg/mL.

As for B1, the IC50 was 0.0834 µg/mL.

B15 showed an IC50 of 0.0249 µg/mL.

B16 registered a 50% inhibitory concentration (IC50) of 0.0284 µg/mL.

On to B5, for which the concentration for half-maximal inhibition (IC50) came out at 0.0415 µg/mL.

B17 had an IC50 of 0.0207 µg/mL.

Source of the values: US20250243292A1 (published 2025).
